PMC8553545

B1: 7N5T oligo (dsDNA)
DNA 1: AGGCCCCTTCCCCAC
DNA 2: TGTGGGGAAGGGGCC
B2: 7N5S oligo (dsDNA)
DNA 1: GGGGCCCCTTCCCCA
DNA 2: CTGGGGAAGGGGCCC

Target: ZBTB7A ZF1-4 (370-500) pXC2222 (Homo sapiens, UniProt O95365 370-500)
Assay: X-ray crystallography

ZBTB7A ZF1-4 (370-500) pXC2222, sequence (O95365 370-500): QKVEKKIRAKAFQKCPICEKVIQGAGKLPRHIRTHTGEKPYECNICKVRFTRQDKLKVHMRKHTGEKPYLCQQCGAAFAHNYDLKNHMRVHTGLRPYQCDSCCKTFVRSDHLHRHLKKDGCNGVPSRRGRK

Binder	binding result
B1	binds
B2	binds
